Experimental data: the RNAGym collection of RNA variant scans (doi:10.1073/pnas.2313332121)

B1: TPR t1 (parent)
chain: GACCAAUCUGCCCUCAGAGCUCGAGAACAUCUUCGGAUGCAGAGGAGGCAGGCUUCGGUGGCGCGAUAGCGCCAACGUCCUCAACCUCCAAUGCAUCCCACCACAUGAUGAUGCCUGAAGAGCCUUGGUUUUUUG

Variants of: B1
Assay: polymerase ribozyme fitness, log enrichment relative to wild type (log ratio); higher = more active; in vitro selection for triplet polymerase activity
Method in brief: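 Fitness measures genotype enrichment against wild-type enrichment on a logarithmic scale, with inverse-variance-weighted averaging of replicates. The logarithm is base 2, and genotypes were kept only with ≥10 input reads and ≥1 read per output in Illumina sequencing. The sequenced libraries came from one triplicate in vitro selection round, including frozen incubation at −7 °C, of PCR-built, transcribed mutant libraries of each subunit of a heterodimeric triplet polymerase ribozyme.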

Variant | polymerase ribozyme fitness (log ratio)
C8A C123G | 2.06
C12A C79A | -1.35
G44C C115G | -2.64
A18C G61C C89G U116C C124A | -2.98
C72G C99A C114G U129A U132A G135C | -4.93
U21G C22A A74G | -4.4
C12A A37G U55G | -0.496
C62U C76U G120C | 0.583
G17U A83U C123G | -1.3
U81C G128U | -2.54
C12G C89U C97A G113C | -6.48
A43U C115A C124U | -0.864
U7G C123A | 1.97
U7A C86G | -0.205
G48U C62A A91U C123U U125A | -4.09
C20U U116G | -4.59
C11A G17C | -4.25
A90C C114A C124A U125C | 0.0876
C13U G51C | -2.27
C72G U112G | -0.196
G47A C70U G77U G93A | -3.29

Variant | polymerase ribozyme fitness (log ratio)
A2U U59C | -2.87
G19C C20A G71A A95U C102U U116C C123U U126G | -6.03
A16C G44U G69U U125G | -2.18
G63U C72A | -4.54
U55G G113C | -0.955
C73U C123G | 2.14
G61U U78A G128C | -2.72
G44C G45U | -2.11
A18G A68U U87G U109A | -5.24
U14A G93A C102U | -4.36
C12A C34U | -4.77
A2U U9A C11G A24U G36U C56G C123G | -7.43
G77A C123U | 1.1
A41G G42A | -2.57
G52U C124A | 0.485
C49A U96A | -1.29
G63A U130G | -0.913
C13U G63C U92A | -3.34
A2U A43C U59A | -5.8
C4U C34G | -5.92
C72U C115G | -2.33

Variant | polymerase ribozyme fitness (log ratio)
G47A C56U C73U C101U A119G G120U G127A | -1.08
C15A A29U C73U C115U U131A | -2.29
G36A U59G G69A C94U G113A | -4.53
C56G G61U U106A C115U | -5.22
G63A G71C | -3.85
U21A C22A A27C C89U C114U A121U | -3.32
A5U A41C G77A G110A A121C U130A | -5.22
C34A C64U C94U | -3.02
C34G G44A A90G C101U A121U | -5.28
C8U G36A | -0.0427
A66U C72G A95C G110U | -6.57
C12A A37G | -0.967
G93C C102U | -3.11
A103U U130G | -5.63
U30A G52U G60A | -4.07
G36C C98G | -6.86
G113C C115A | -4.21
G61A C88A G120C A121U | 0.393
C56U A84G A95C G127U | -2.62
U106A C115G | -3.75
C86U C98A | -4.48

Variant | polymerase ribozyme fitness (log ratio)
C70G C82U | -3.14
C70G C82A | -2.48
C11A C20U | -1.95
C22U C70A | -4.49
G77C U131G | -0.172
A6G U59C | -0.609
G10U G17U G45U C104U C124A | -1.08
C53U C72A A91G | -1.6
C53A G63U C82A A83C U96C | -3.55
U9G G36A C70U | -0.939
G48C U133G | -1.8
G36A G63U C85G | -2.03
A27C G57C C85A G135U | -4.97
A37C G113C | -2.44
C15A A46C G52C A91U U129G | -6.42
U14G G71U G93U A105U | -6.14
C70U G93U | -1.7
G51A C64A A84C G117C | -6.48
C11G C40A C53A | -0.596
G57C G93A | -0.552
U21C C34A C49U U78C G120A | -2.92
